# Laboratory results from patent US20030186841.
# pKd: −log10 of the molar value.
# Columns and labels:
# [1] = biological target: VP16-C7-ER (synthetic/mouse ER) (UniProt P19785); assay: cell_activity; conditions: 4-OH tamoxifen
# [2] = system: VP16-C7-PR (synthetic/human PR); assay: cell_activity; conditions: RU486
# [3] = system: E2C(Zif) six-finger (synthetic); assay: EMSA
# [4] = system: E2C(Sp1) six-finger (synthetic); assay: EMSA
# [5] = biological target: C7-PBD-VP64 (synthetic/human PR) (UniProt P08046); assay: cell_activity; conditions: +RU486
# [6] = system: E2F-PBD-VP64 heterodimer (synthetic/human PR); assay: cell_activity; conditions: basal; 54986 with RU486; pcDNA control 17209
# [7] = system: E2C-HS2(Zif) (synthetic); assay: EMSA
# [8] = system: E2C-HS2(Sp1) (synthetic); assay: EMSA
# [9] = system: E2C-HS2(F2) (synthetic); assay: EMSA; conditions: ELISA binding good (Table 11)
# [10] = system: E2E-PBD-VP64 (synthetic); assay: cell_activity; conditions: +RU486; basal 18259, control 17209
# [11] = system: B3B(Sp1)-VP64 (synthetic); assay: cell_activity; conditions: HeLa luciferase
# [12] = biological target: pmGTT (Zif268-C7 finger 2 variant) finger 2 helix -2 to 6 = STSGSLVR in Zif268-C7 (synthetic) (UniProt P08046); assay: EMSA; conditions: [none]
# [13] = biological target: pmGGT (Zif268-C7 finger 2 variant) finger 2 helix -2 to 6 = STSGHLVR in Zif268-C7 (synthetic) (UniProt P08046); assay: EMSA; conditions: [7-9,26-28]
# [14] = biological target: pmGCT (Zif268-C7 finger 2 variant) finger 2 helix -2 to 6 = STSGELVR in Zif268-C7 (synthetic) (UniProt P08046); assay: EMSA; conditions: [none]
# [15] = biological target: pGCA (Zif268-C7 finger 2 variant) finger 2 helix -2 to 6 = SQSGDLRR in Zif268-C7 (synthetic) (UniProt P08046); assay: EMSA; conditions: [none]
# [16] = biological target: pGAT (Zif268-C7 finger 2 variant) finger 2 helix -2 to 6 = STSGNLVR in Zif268-C7 (synthetic) (UniProt P08046); assay: EMSA; conditions: [none]
# [17] = biological target: pGTG (Zif268-C7 finger 2 variant) finger 2 helix -2 to 6 = SRKDSLVR in Zif268-C7 (synthetic) (UniProt P08046); assay: EMSA; conditions: [7-9,26-28]
# [18] = biological target: pGTA (Zif268-C7 finger 2 variant) finger 2 helix -2 to 6 = SQSSSLVR in Zif268-C7 (synthetic) (UniProt P08046); assay: EMSA
# [19] = biological target: pmGTG (Zif268-C7 finger 2 variant) finger 2 helix -2 to 6 = SRSDELVR in Zif268-C7 (synthetic) (UniProt P08046); assay: EMSA; conditions: [7-9,26-28]
# [20] = biological target: pmGGG (Zif268-C7 finger 2 variant) finger 2 helix -2 to 6 = SRSDKLVR in Zif268-C7 (synthetic) (UniProt P08046); assay: EMSA; conditions: [7-9,26-28]
# [21] = biological target: C7 (Zif268-C7) (synthetic) (UniProt P08046); assay: EMSA; conditions: [none]
# [22] = biological target: pGGG (Zif268-C7 finger 2 variant) finger 2 helix -2 to 6 = SRSDHLTR in Zif268-C7 (synthetic) (UniProt P08046); assay: EMSA; conditions: [7-9,26-28]
# [23] = biological target: pmGAG (Zif268-C7 finger 2 variant) finger 2 helix -2 to 6 = SRSDNLVR in Zif268-C7 (synthetic) (UniProt P08046); assay: EMSA; conditions: [7-9,26-28]
# [24] = biological target: pmGCG (Zif268-C7 finger 2 variant) finger 2 helix -2 to 6 = SRSDDLVR in Zif268-C7 (synthetic) (UniProt P08046); assay: EMSA
# [25] = biological target: pGTC (Zif268-C7 finger 2 variant) finger 2 helix -2 to 6 = SDPGALVR in Zif268-C7 (synthetic) (UniProt P08046); assay: EMSA; conditions: [none]
# [26] = biological target: pmGGC (Zif268-C7 finger 2 variant) finger 2 helix -2 to 6 = SDPGHLVR in Zif268-C7 (synthetic) (UniProt P08046); assay: EMSA; conditions: [7-9,26-28]
# [27] = biological target: pmGAC (Zif268-C7 finger 2 variant) finger 2 helix -2 to 6 = SDPGNLVR in Zif268-C7 (synthetic) (UniProt P08046); assay: EMSA; conditions: [none]
# [28] = biological target: pGCC (Zif268-C7 finger 2 variant) finger 2 helix -2 to 6 = SDCRDLAR in Zif268-C7 (synthetic) (UniProt P08046); assay: EMSA; conditions: [none]
# [29] = biological target: pGGA (Zif268-C7 finger 2 variant) finger 2 helix -2 to 6 = SQRAHLER in Zif268-C7 (synthetic) (UniProt P08046); assay: EMSA; conditions: [7-9,26-28]
# [30] = biological target: pmGAA (Zif268-C7 finger 2 variant) finger 2 helix -2 to 6 = SQSSNLVR in Zif268-C7 (synthetic) (UniProt P08046); assay: EMSA; conditions: [none]
# [31] = system: C5(F2) three-finger protein (synthetic); assay: EMSA
# [32] = system: B3C2(Sp1)-VP64 (synthetic); assay: cell_activity; conditions: HeLa luciferase
# [33] = system: B3(F2) three-finger protein (synthetic); assay: EMSA
# [34] = system: E2C-HS1(F2) (synthetic); assay: EMSA; conditions: ELISA binding good (Table 11)
# [35] = system: E2C-HS1(Sp1) (synthetic); assay: EMSA
# [36] = system: E2C-HS1(Zif) (synthetic); assay: EMSA
# [37] = system: E2C(Sp1)-ERD six-finger repressor (synthetic); assay: cell_activity; conditions: approximately; HeLa luciferase
# [38] = system: E2C-ER//ER-VP64 heterodimer (synthetic); assay: cell_activity; conditions: tamoxifen-dependent; maximum at optimised partner ratio
# [39] = system: E2C-ER//ER-KRAB heterodimer (synthetic); assay: cell_activity; conditions: tamoxifen-dependent; partner ratio 1/10
# [40] = system: SID-E2C(Sp1) six-finger repressor (synthetic); assay: cell_activity; conditions: approximately; HeLa luciferase
# [41] = system: E2C(Sp1) six-finger, no effector domain (synthetic); assay: cell_activity; conditions: approximately; HeLa luciferase, no effector domain
# [42] = system: E2C(Sp1)-VP16 (synthetic); assay: cell_activity; conditions: HeLa luciferase
# [43] = system: E2C(F2) six-finger (synthetic); assay: EMSA
# [44] = system: E2(F2) three-finger protein (synthetic); assay: EMSA
substance,measurement,setting,value
10xC7 pGL3prom reporter,activity (fold induction),[1],43
same,activity (fold induction),[2],26
AGTCTGAATGCCGCAGTGG (double strand) [e2c-muths1],pKd,[3],6.70
same,pKd,[4],7.19
"C7 direct repeat, 0 spacer, TATA reporter",activity (luciferase units),[5]; 4081 without,20000
"C7 direct repeat, 1 bp spacer, TATA reporter",activity (luciferase units),[5]; 3383 without,8200
"C7 direct repeat, 2 bp spacer, TATA reporter",activity (luciferase units),[5]; 3417 without,8170
"C7 direct repeat, 3 bp spacer, TATA reporter",activity (luciferase units),[5]; 3269 without,5140
"C7 direct repeat, 4 bp spacer, TATA reporter",activity (luciferase units),[5]; 3966 without,6940
"C7 direct repeat, 5 bp spacer, TATA reporter",activity (luciferase units),[5]; 2597 without,5460
"C7 everted repeat, 0 spacer, TATA reporter",activity (luciferase units),[5]; 8750 without,17400
"C7 everted repeat, 1 bp spacer, TATA reporter",activity (luciferase units),[5]; 6029 without,13600
"C7 everted repeat, 2 bp spacer, TATA reporter",activity (luciferase units),[5]; 7880 without,20800
"C7 everted repeat, 3 bp spacer, TATA reporter",activity (luciferase units),[5]; 9670 without,21500
"C7 everted repeat, 4 bp spacer, TATA reporter",activity (luciferase units),[5]; 6974 without,8900
"C7 everted repeat, 5 bp spacer, TATA reporter",activity (luciferase units),[5]; 6892 without,13100
"C7 inverted repeat, 0 spacer, TATA reporter",activity (luciferase units),[5]; 2921 without,10800
"C7 inverted repeat, 1 bp spacer, TATA reporter",activity (luciferase units),[5]; 4342 without,9530
"C7 inverted repeat, 2 bp spacer, TATA reporter",activity (luciferase units),[5]; 6964 without,19200
"C7 inverted repeat, 3 bp spacer, TATA reporter",activity (luciferase units),[5]; 7132 without,12800
"C7 inverted repeat, 4 bp spacer, TATA reporter",activity (luciferase units),[5]; 3502 without,8860
"C7 inverted repeat, 5 bp spacer, TATA reporter",activity (luciferase units),[5]; 4704 without,12400
"GAGGAGGGCTGCTTGAGGAAGTA (double strand) [erbB-2 promoter reporter, E2F dimer site]",activity (luciferase units),[6],61400
GCCGCAGTGG (double strand) [e2c-hs2],pKd,[7],7.12
same,pKd,[8],7.60
same,pKd,[9],7.15
GCCGGAGCCATGGGGCCGGAGCC (double strand) [E2E site in erbB-2 promoter reporter],activity (luciferase units),[10],15900
"GCCTGAGAGGGAGCGGTG (double strand) [integrin beta3 promoter reporter, b3b site]",activity (fold activation),[11],12
GGACGCAACCGCGGGTTTTCCCGCGGTTGCGTCC [F2 site GTT],pKd,[12],8.30
GGACGCACCCGCGGGTTTTCCCGCGGGTGCGTCC [F2 site GGT],pKd,[13],7.82
GGACGCAGCCGCGGGTTTTCCCGCGGCTGCGTCC [F2 site GCT],pKd,[14],7.19
same,pKd,[15],8.00
GGACGCATCCGCGGGTTTTCCCGCGGATGCGTCC [F2 site GAT],pKd,[16],8.52
GGACGCCACCGCGGGTTTTCCCGCGGTGGCGTCC [F2 site GTG],pKd,[17],8.52
same,pKd,"[18]; [7-9,26-28]",< 6.00
same,pKd,[19],7.82
same,pKd,[20],< 5.85
GGACGCCCACGCGGGTTTTCCCGCGTGGGCGTCC [F2 site TGG],pKd,[21],9.30
GGACGCCCCCGCGGGTTTTCCCGCGGGGGCGTCC [F2 site GGG],pKd,[22],9.40
same,pKd,[23],7.35
same,pKd,[20],8.22
GGACGCCGCCGCGGGTTTTCCCGCGGCGGCGTCC [F2 site GCG],pKd,[24]; [none],8.05
GGACGCCTCCGCGGGTTTTCCCGCGGAGGCGTCC [F2 site GAG],pKd,[23],9.00
same,pKd,[19],7.52
same,pKd,"[24]; [7-9,26-28]",8.22
GGACGCGACCGCGGGTTTTCCCGCGGTCGCGTCC [F2 site GTC],pKd,[25],7.40
GGACGCGCCCGCGGGTTTTCCCGCGGGCGCGTCC [F2 site GGC],pKd,[13],< 5.62
same,pKd,[26],7.40
GGACGCGGCCGCGGGTTTTCCCGCGGCCGCGTCC [F2 site GCC],pKd,[25],< 5.36
same,pKd,[27],7.05
same,pKd,[28],7.10
GGACGCGTCCGCGGGTTTTCCCGCGGACGCGTCC [F2 site GAC],pKd,[27],8.52
GGACGCTACCGCGGGTTTTCCCGCGGTAGCGTCC [F2 site GTA],pKd,[18]; [none],7.60
GGACGCTCCCGCGGGTTTTCCCGCGGGAGCGTCC [F2 site GGA],pKd,[29],8.52
GGACGCTGCCGCGGGTTTTCCCGCGGCAGCGTCC [F2 site GCA],pKd,[15],8.70
GGACGCTTCCGCGGGTTTTCCCGCGGAAGCGTCC [F2 site GAA],pKd,[30],9.30
GGAGGCGGGG (double strand) [c5],pKd,[31],7.52
"GGAGGGGACGCGGTGGGT (double strand) [integrin beta3 promoter reporter, b3c2 site]",activity (fold activation),[32],22
GGAGGGGAGG (double strand) [b3],pKd,[33],8.40
GGGGCCGGAAGTCTGAATG (double strand) [e2c-muths2],pKd,[3],6.70
same,pKd,[4],7.00
GGGGCCGGAG (double strand) [e2c-hs1],pKd,[34],7.35
same,pKd,[35],7.46
same,pKd,[36],7.15
GGGGCCGGAGCCGCAGTG (double strand) [E2C site in erbB-2 promoter reporter],activity,[37],50 % repression
same,activity (fold activation),[38],5.3
same,activity (fold repression),[39],2.9
same,activity,[40],80 % repression
same,activity,[41],30 % repression
"GGGGCCGGAGCCGCAGTG (double strand) [erbB-2 promoter reporter, E2C site]",activity (fold activation),[42],5
GGGGCCGGAGCCGCAGTGA (double strand) [e2c-a],pKd,[3],8.64
same,pKd,[4],9.12
GGGGCCGGAGCCGCAGTGG (double strand) [e2c-g],pKd,[3],8.80
same,pKd,[43],7.60
same,pKd,[4],9.30
GGGGGCGAGG (double strand) [e2],pKd,[44],8.52
